Measured values from US10472652B2, “Chemical engineering processes and apparatus for the synthesis of compounds” (TEEWINOT T[…], priority 2013, dated 2019).

B1: Pme THC(3) #1: cell free supernatant with THCA synthase from a pPink yeast colony transformed with Pme I linearized THCA synthase plasmid (protein, UniProt Q8GTB6 29-545, looked up)
Tetrahydrocannabinolic acid …: NPRENFLKCFSKHIPNNVANPKLVYTQHDQLYMSILNSTIQNLRFISDTTPKPLVIVTPSNNSHIQATILCSKKVGLQIRTRSGGHDAEGMSYISQVPFVVVDLRNMHSIKIDVHSQTAWVEAGATLGEVYYWINEKNENLSFPGGYCPTVGVGGHFSGGGYGALMRNYGLAADNIIDAHLVNVDGKVLDRKSMGEDLFWAIRGGGGENFGIIAAWKIKLVAVPSKSTIFSVKKNMEIHGLVKLFNKWQNIAYKYDKDLVLMTHFITKNITDNHGKNKTTVHGYFSSIFHGGVDSLVDLMNKSFPELGIKKTDCKEFSWIDTTIFYSGVVNFNTANFKKEILLDRSAGKKTAFSIKLDYVKKPIPETAMVKILEKLYEEDVGAGMYVLYPYGGIMEEISESAIPFPHRAGIMYELWYTASWEKQEDNEKHINWVRSVYNFTTPYVSQNPRLAYLNYRDLDLGKTNHASPNNYTQARIWGEKYFGKNFNRLVKVKTKVDPNNFFRNEQSIPPLPPHHH
modifications: yeast culture supernatant
notes: cell free supernatant with THCA synthase from a pPink yeast colony transformed with Pme I linearized THCA synthase plasmid
B2: Spe THC #3: cell free supernatant with THCA synthase from a pPink yeast colony transformed with Spe I linearized THCA synthase plasmid (protein, UniProt Q8GTB6 29-545, looked up)
Tetrahydrocannabinolic acid …: B1 Tetrahydrocannabinolic acid …
modifications: yeast culture supernatant
notes: cell free supernatant with THCA synthase from a pPink yeast colony transformed with Spe I linearized THCA synthase plasmid
B3: Pme THC(3) #11: cell free supernatant with THCA synthase from a pPink yeast colony transformed with Pme I linearized THCA synthase plasmid (protein, UniProt Q8GTB6 29-545, looked up)
Tetrahydrocannabinolic acid …: B1 Tetrahydrocannabinolic acid …
modifications: yeast culture supernatant
notes: as for B1
B4: Spe THC #23: cell free supernatant with THCA synthase from a pPink yeast colony transformed with Spe I linearized THCA synthase plasmid (protein, UniProt Q8GTB6 29-545, looked up)
Tetrahydrocannabinolic acid …: B1 Tetrahydrocannabinolic acid …
modifications: yeast culture supernatant
notes: as for B2
B5: Pme THC(3) #19: cell free supernatant with THCA synthase from a pPink yeast colony transformed with Pme I linearized THCA synthase plasmid (protein, UniProt Q8GTB6 29-545, looked up)
Tetrahydrocannabinolic acid …: B1 Tetrahydrocannabinolic acid …
modifications: yeast culture supernatant
notes: as for B1
B6: Pme THC(3) #17: cell free supernatant with THCA synthase from a pPink yeast colony transformed with Pme I linearized THCA synthase plasmid (protein, UniProt Q8GTB6 29-545, looked up)
Tetrahydrocannabinolic acid …: B1 Tetrahydrocannabinolic acid …
modifications: yeast culture supernatant
notes: as for B1
B7: Spe THC #4: cell free supernatant with THCA synthase from a pPink yeast colony transformed with Spe I linearized THCA synthase plasmid (protein, UniProt Q8GTB6 29-545, looked up)
Tetrahydrocannabinolic acid …: B1 Tetrahydrocannabinolic acid …
modifications: yeast culture supernatant
notes: as for B2
B8: Pme THC(3) #20: cell free supernatant with THCA synthase from a pPink yeast colony transformed with Pme I linearized THCA synthase plasmid (protein, UniProt Q8GTB6 29-545, looked up)
Tetrahydrocannabinolic acid …: B1 Tetrahydrocannabinolic acid …
modifications: yeast culture supernatant
notes: as for B1
B9: Spe THC #22: cell free supernatant with THCA synthase from a pPink yeast colony transformed with Spe I linearized THCA synthase plasmid (protein, UniProt Q8GTB6 29-545, looked up)
Tetrahydrocannabinolic acid …: B1 Tetrahydrocannabinolic acid …
modifications: yeast culture supernatant
notes: as for B2

Target: T1, THCA synthase (Cannabis sativa, UniProt Q8GTB6)
T1 construct: His-tag (C); made in house; host or cells: Pichia pastoris (PichiaPink, pPink-HC vector), secreted into the medium; cell-free T3 supernatant used
T1 sequence (Q8GTB6 29-545): B1 Tetrahydrocannabinolic acid …
Experiment: catalytic activity of THCA synthase from independent colonies of transformed pPink yeast cells (conversion of CBGA to THCA)
Format: biochemical
Conditions: 25 μl cell free supernatant of T3 sample, 100 mM citrate buffer, 10% DMSO, final pH 5.0, 2 hours at 30° C.
Description: After 24 hours a 100 μL of the cell sample was removed to which was added 100 μL of 40% methanol to induce enzyme production. This methanolic sample was then centrifuged at 12,000 rpm for 5 minutes and the supernatant and pellet were saved as the T1 sample. A second culture sample was obtained after a 48 hour incubation period and treated with methanol as described above. After centrifugation, the supernatant and pellet are saved as the T2 sample. At 72 hours the entire incubation mixture is treated with an appropriate volume of 40% methanol. The supernatant and pellet obtained from methanolic treatment of the culture after a 72 hour incubation period is labeled as T3. The T3 supernatant was spun through an Amicon 30 kD protein filter and analyzed for protein using an SDS-PAGE gel.
The catalytic activity of THCA synthase was measured by incubating 25 μl of the cell free supernatant from a T3 sample with 25 μl of a 1 mg/ml CBGA stock in 200 μl of a 100 mM citrate buffer at pH 4.8 having 10% DMSO for 2 hours at 30° C. The final concentration of CBGA in the reaction mixture was 0.1 mg/ml and the final pH is 5.0. Table 4 illustrates the data related to the catalytic activity of THCA synthase obtained from independent colonies of transformed pPink yeast cells, namely. pPink yeast cells that were transformed using linearized THCA synthase plasmids. Culture samples that converted greater than 20% of the substrate CBGA to product THCA were selected for scale up.

**Q.** Which “% Conversion of CBGA to THCA in reaction containing 0.1 mg/ml CBGA.” value (shortened to “% Conversion of CBGA to THCA”) does the source give for B1 here?
**A.** The value was 55.2%.

**Q.** For B2, which “% Conversion of CBGA to THCA” value is on record?
**A.** Its value is 20.6%.

**Q.** How did the “% Conversion of CBGA to THCA” value turn out when B3 was run?
**A.** The value was 35.0%.

**Q.** With B4 as the molecule, how does the “% Conversion of CBGA to THCA” value read?
**A.** Its value is 18.7%.

**Q.** With B5 as the molecule, how does the “% Conversion of CBGA to THCA” value read?
**A.** The value was 36.8%.

**Q.** Which “% Conversion of CBGA to THCA” value does the source give for B6 here?
**A.** Its value is 69.9%.

**Q.** Which “% Conversion of CBGA to THCA” value does the source give for B7 here?
**A.** Its value is 28.7%.

**Q.** Which “% Conversion of CBGA to THCA” value does the source give for B8 here?
**A.** Its value is 34.3%.

**Q.** For B9, which “% Conversion of CBGA to THCA” value is on record?
**A.** The value was 20.6%.
